# From patent publication US7432419B2 (priority 2004, dated 2008)
# B1: Elastase: Human Neutrophil Elastase (Sigma), used as surface recognition domain component (protein, listed as Homo sapiens)
# chain: EIVGGRRARPHAWPFMVSLQLRGGHFCGATLIAPNFVMSAAHCVANVNVRAVRVVLGAHNLSRREPTRQVFAVQRIFENGYDPVNLLNDIVILQLNGSATINANVQVAQLPAQGRRLGNGVQCLAMGWGLLGRNRGIASVLQELNVTVVTSLCRRSNVCTLVRGRQAGVCFGDSGSPLVCNGLIHGIASFVRGGCASGLYPDAFAPVAQFVNWIDSIIQ
# modifications: truncated neutrophil elastase protein
# notes: Human Neutrophil Elastase (Sigma), used as surface recognition domain component
# Key:
# [1] = tested on: Xylella fastidiosa (Xf strain "Stags Leap"); assay type: cell-based
# E. coli strain HB 101 = assay type: cell-based
# [2] = tested on: Xf outer-membrane protein mopB; assay type: biochemical, Xylella fastidiosa
molecule,measurement,setting,value
Cecropin B [reference compound],bacterial growth inhibition (killing) of Xf,[1],some growth inhibition
same,bacterial growth inhibition (killing) of E. coli,E. coli strain HB 101,complete growth inhibition
B1,bacterial growth inhibition (killing) of Xf,[1],insufficient to inhibit bacterial growth
same,effect of elastase on Cecropin B-stimulated lysis of Xf cells,[1],greatly enhances
same,bacterial growth inhibition (killing) of E. coli,E. coli strain HB 101,insufficient to inhibit bacterial growth
same,digestion of purified mopB,[2],at least partially digested
